Measurements published in PMC5000598.

Tests used:
[1] = molecular target: LZ-EGFR-GFP (chimeric EGFR with the extracellular domain replaced by the c-Fos leucine zipper, GFP at the C-terminus) (UniProt P01100); test: SDS-resistant dimer on SDS-PAGE immunoblot; total Triton X-100 lysates of transfected 293T cells boiled in SDS-loading buffer with beta-mercaptoethanol, no cross-linker; immunoblot with anti-pEGFR antibodies
[2] = molecular target: LZ-EGFR-GFP (chimeric EGFR with the extracellular domain replaced by the c-Fos leucine zipper, GFP at the C-terminus) (UniProt P01100); test: cross-linking; homogenates of transiently transfected 293T cells in PBS, 6 mM DSS, 30 min at room temperature, quenched with 250 mM glycine; membrane pellet lysed, SDS-PAGE, immunoblot with anti-EGFR and anti-GFP; EGFR-GFP cells stimulated with EGF (100 ng/mL, 30 min)

Substance: LZ-EGFR-GFP (chimeric EGFR with the extracellular domain replaced by the c-Fos leucine zipper, GFP at the C-terminus) (from UniProt P01100 160-200; P00533 623-1210) (receptor)
- stoichiometry N [1]: 2
- stoichiometry N [2]: 2
